Laboratory results as given in US20250346678A1 (published 2025).

T1: human OX40 IgG1 Fc chimera (human, UniProt P43489 29-214)
T1 chain: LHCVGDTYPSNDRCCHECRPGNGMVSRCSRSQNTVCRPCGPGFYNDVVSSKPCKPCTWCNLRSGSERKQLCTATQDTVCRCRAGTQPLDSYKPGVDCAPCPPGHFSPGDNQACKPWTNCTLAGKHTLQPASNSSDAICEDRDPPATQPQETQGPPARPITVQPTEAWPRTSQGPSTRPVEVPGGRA


Columns and labels:
[1] = biological target: T2, human PD-L1 IgG1 Fc chimera (human, UniProt Q9NZQ7 19-238); experiment: ELISA
[2] = biological target: T2, human PD-L1 IgG1 Fc chimera; experiment: competition ELISA; PD-1/PD-L1 blocking
[3] = biological target: T1, human OX40 IgG1 Fc chimera; experiment: ELISA

T2 sequence (Q9NZQ7 19-238, change not shown): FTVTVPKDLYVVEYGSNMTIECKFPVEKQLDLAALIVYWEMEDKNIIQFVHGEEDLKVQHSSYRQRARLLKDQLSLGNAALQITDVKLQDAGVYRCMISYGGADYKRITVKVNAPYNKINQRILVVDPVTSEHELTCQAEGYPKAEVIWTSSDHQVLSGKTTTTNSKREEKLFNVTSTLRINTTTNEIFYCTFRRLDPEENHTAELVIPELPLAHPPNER

EC50 [1] [nM] | IC50 [2] [nM] | EC50 [3] [nM] | Binder
0.0348 | – | – | anti-PD-L1 antibody clone 32 (antibody, V domains shown) VH: QVQLVQSGAKVKKPGSSVKVSCKASGGTFSSYAISWVRQAPGQGLEWMGRIIPILGIANYAQKFQGRVTITADKSTSTAYMELSSLRSEDTAVYYCARVVPGYSYGPFDYWGQGTTVTVSS VL: QSALTQPASVSGSPGQSITISCTGTSNDVGSYNSVSWYQQHPGKAPKLVIYEVANRPSGVPDRFSGSKSGNTASLTISGLQAEDEADYYCSSYTSSSTLVFGGGTKLTVLG
0.082 | 11.4 | – | anti-PD-L1 antibody clone 6 (antibody, V domains shown) VH: QVQLVQSGAEVKKPGSSVKVSCKASGGTFRRYSISWVRQAPGQGLEWMGGIIPVFGAAKYAQKFQGRVTITADEFTSTAYMELSSLTSEDTAVYYCALSGDSDAFDIWGQGTMVTVSS VL: not shown
– | – | 1.22 | anti-OX40 antibody clone B19 (antibody, V domains shown) VH: EVQLVESGGGLVKPGGSLRLSCAASGFTFSSYSMNWVRQAPGKGLEWVSSISSSSRYIYYADSVKGRFTISRDNAKNSLYLQMNSLRAEDTAVYYCARQNEDVAFGIWGQGTMVTVSS VL: SYVLTQPPSVSVTPGKTARIACGGNNLESKIVSWYQQKPGQAPVLVIFYDTDRPSGISERFSGSNSGNTATLTISRVEAGDEADYYCQVWDSNSDHVIFGGGTKLTVLG
